Source: patent US20120251554A1 (TECHNISCHE UNIVERSIT T DRESDEN, published 2012)

Key:
human CD33 [1] = biological target: T1, human CD33 (human, UniProt P20138 18-364); assay: cell-based or functional assay
T1 construct: whole, on cells; also called CD33+-Hek293T cells; Hek293T-CD33

human CD33 [2] = biological target: T1, human CD33; assay: method not stated (sentence refers to FIG. 3, flow cytometry)

T1 sequence (P20138 18-364): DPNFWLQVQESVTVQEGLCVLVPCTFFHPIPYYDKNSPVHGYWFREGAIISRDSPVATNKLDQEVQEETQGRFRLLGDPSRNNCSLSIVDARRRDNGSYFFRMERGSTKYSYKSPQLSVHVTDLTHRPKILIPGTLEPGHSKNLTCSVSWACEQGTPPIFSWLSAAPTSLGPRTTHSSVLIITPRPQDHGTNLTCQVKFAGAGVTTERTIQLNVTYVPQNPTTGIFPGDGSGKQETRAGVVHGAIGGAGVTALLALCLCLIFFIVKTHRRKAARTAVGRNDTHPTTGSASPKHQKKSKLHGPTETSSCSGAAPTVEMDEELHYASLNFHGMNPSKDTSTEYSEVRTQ

| specific lysis of the CD33+-Hek293T cells (51Cr release assay, 20-hour in vitro culture) (human CD33 [1]) [%] | Kd (human CD33 [2]) [pM] | Binder |
| --- | --- | --- |
| < 86 |  | CD33-L18-GFP-L18-CD3 (bispecific antibody, part only; not given: anti-CD3 scFv, GFP, linkers, not shown: small tags and cut ends; large carriers) chain, part: EVKLQESGPELVKPGASVKMSCKASGYKFTDYVVHWLKQKPGQGLEWIGYINPYNDGTKYNEKFKGKATLTSDKSSSTAYMEVSSLTSEDSAVYYCARDYRYEVYGMDYWGQGTSVTVSSDIVLTQSPTIMSASPGERVTMTCTASSSVNYIHWYQQKSGDSPKRWIFDTSKVASGVPARFSGSGSGTSYSLTISTMEAEDAATYYCQQWRSYPLTFGDGTRLELKRADAAPTVS |
|  | ~100 | anti-CD33DRB1 (antibody, V domains shown, Murine monoclonal antibody from a hybridoma (tested as hybridoma supernatant); also called monoclonal anti-CD33DRB1; anti-CD33DRB antibody) VH: EVKLQESGAELVRPGVSVKISCKGSGYTFTDYVLHWVKQSHAKSLEWIGLINTYNGDVRYNQKFMGKATMTIEKSSSTAYMELVRLTSEDSAIYYCARDYRYEYYAMDYWGQGTSVTVSS VL: DIVLTQSPAIMSASPGEKVTMTCSANSSVSYIHWYQQKSGTSPKRWIFDTSKLASGVPARFSGSGSGTSYSLTISTMEAEDAATYYCQQWTSHPLTFGTGTKLQLKR |
|  | ~100 | anti-CD33DRB2 (antibody, V domains shown, Murine monoclonal antibody from a hybridoma; also called monoclonal anti-CD33DRB2; anti-CD33DRB antibody) VH: EVKLQESGPELVKPGASVKMSCKASGYKFTDYVVHWLKQKPGQGLEWIGYINPYNDGTKYNEKFKGKATLTSDKSSSTAYMEVSSLTSEDSAVYYCARDYRYEVYGMDYWGQGTSVTVSS VL: DIVLTQSPTIMSASPGERVTMTCTASSSVNYIHWYQQKSGDSPKRWIFDTSKVASGVPARFSGSGSGTSYSLTISTMEAEDAATYYCQQWRSYPLTFGDGTRLELKR |
